Data published in patent US20250115678A1 (AstraZeneca / MedImmune, published 2025).
Where a chain is given by its changes, count along the chain named.

What was measured:
[1] = target: T1, soluble recombinant human CD8a protein (human, UniProt P01732 22-182, biotinylated); test: biolayer interferometry (Octet RED384), biotinylated antigen on streptavidin biosensors
T1 construct: also called CD8α Human
Description: (§1) Binding kinetics were measured by biolayer interferometry on an OCTET 384 instrument. Streptavidin (SA) biosensors were loaded with biotinylated protein antigens (ACRO Biosystems, Newark, DE) in PBS pH 7.2, 1 mg/mL BSA, 0.05% (v/v) TWEEN (Kinetic buffer). The loaded biosensors were washed in the same buffer before carrying out association and dissociation measurements with various antibodies for the indicated times. Kinetic parameters (Kₒₙ and Koff) and affinities (KD) were calculated from a non-linear fit of the data using the OCTET software v.12.2.1.24.

[2] = target: T2, soluble recombinant human GPC3 protein (human, UniProt P51654 25-559, biotinylated in the biolayer interferometry assay); test: biolayer interferometry (Octet), biotinylated antigen on streptavidin biosensors
T2 construct: also called GPC3 human
Description: as §1

[3] = target: T3, human EphB6 on transiently transfected Ad293 cells (human, UniProt O15197 32-1021); test: Flow cytometry on Ad293 cells transiently transfected with human EphB6 (off-target binding)
T3 construct: whole, on cells; also called EphB6-expressing cells
T3 sequence (looked up): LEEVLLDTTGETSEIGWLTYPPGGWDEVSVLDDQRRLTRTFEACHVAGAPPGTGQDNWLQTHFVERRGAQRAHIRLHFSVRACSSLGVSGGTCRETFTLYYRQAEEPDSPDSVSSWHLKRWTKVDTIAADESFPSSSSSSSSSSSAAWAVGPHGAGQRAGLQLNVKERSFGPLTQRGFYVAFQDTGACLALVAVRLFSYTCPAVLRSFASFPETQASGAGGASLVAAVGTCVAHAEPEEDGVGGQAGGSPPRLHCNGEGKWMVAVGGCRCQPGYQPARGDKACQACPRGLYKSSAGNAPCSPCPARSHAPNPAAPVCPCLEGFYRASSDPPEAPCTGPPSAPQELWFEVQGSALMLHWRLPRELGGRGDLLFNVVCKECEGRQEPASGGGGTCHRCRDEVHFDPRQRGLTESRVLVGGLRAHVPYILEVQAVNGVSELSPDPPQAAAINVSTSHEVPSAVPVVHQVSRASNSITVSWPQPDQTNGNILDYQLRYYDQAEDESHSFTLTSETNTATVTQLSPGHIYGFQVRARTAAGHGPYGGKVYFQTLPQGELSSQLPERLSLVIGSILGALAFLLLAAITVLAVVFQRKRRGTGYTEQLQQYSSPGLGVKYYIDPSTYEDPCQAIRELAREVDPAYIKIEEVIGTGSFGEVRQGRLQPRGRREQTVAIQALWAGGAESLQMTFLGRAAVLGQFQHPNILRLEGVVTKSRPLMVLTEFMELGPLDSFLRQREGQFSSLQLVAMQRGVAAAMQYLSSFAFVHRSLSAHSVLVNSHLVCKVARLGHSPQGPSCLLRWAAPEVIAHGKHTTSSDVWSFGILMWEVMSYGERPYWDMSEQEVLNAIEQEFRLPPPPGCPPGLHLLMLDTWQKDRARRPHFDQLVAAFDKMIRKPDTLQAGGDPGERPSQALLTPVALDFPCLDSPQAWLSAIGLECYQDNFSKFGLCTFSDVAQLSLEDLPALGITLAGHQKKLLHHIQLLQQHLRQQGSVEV
Excerpt: Ad293 cells were transiently transfected with a plasmid expressing human EphB6.

[4] = target: T4, human LRRC15 recombinant extracellular domain protein (human, UniProt Q8TF66 22-538); test: SPR single-cycle kinetics (Biacore 8K+), TCE captured on Protein G chip, LRRC15 ECD as analyte, 1:1 fit, average of 3 or 4 replicates
T4 construct: extracellular domain; also called LRRC15 human
T4 sequence (looked up): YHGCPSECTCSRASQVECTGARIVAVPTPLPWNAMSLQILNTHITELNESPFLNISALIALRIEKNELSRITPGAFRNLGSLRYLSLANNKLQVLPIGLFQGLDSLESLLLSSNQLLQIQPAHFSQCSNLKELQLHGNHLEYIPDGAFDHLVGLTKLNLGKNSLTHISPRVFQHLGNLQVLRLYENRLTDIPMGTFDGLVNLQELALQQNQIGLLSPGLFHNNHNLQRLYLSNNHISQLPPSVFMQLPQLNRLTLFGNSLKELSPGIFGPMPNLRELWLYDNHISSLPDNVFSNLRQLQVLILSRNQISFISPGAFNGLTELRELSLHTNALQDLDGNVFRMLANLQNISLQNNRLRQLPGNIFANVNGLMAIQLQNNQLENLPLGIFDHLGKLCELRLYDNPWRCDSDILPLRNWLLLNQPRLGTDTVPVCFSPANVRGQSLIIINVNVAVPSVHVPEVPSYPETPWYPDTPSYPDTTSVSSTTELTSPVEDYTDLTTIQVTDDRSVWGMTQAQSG
Excerpt: (§2) The fully corrected binding data were globally fitted to a 1:1 binding model to determine the KD using the Biacore™ Insight Evaluation Software (CYTIVA). Coloured sensorgram trace represents the raw data and black line the global 1:1 fit to that data. Values for kinetics parameters is shown in Table 8 are averages for 3 or 4 replicate sets of measurements.

[5] = target: T5, cyno LRRC15 recombinant extracellular domain protein (cyno, UniProt G7NYR2 22-538); test: as above
T5 construct: extracellular domain; also called LRRC15 cyno
Excerpt: as §2

T1 sequence (P01732 22-182 limits assumed): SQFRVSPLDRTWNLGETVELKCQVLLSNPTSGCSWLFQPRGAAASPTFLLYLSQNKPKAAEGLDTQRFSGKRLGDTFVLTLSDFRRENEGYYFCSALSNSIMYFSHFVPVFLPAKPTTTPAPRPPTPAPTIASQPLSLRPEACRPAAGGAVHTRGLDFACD
T2 sequence (P51654 25-559 limits assumed): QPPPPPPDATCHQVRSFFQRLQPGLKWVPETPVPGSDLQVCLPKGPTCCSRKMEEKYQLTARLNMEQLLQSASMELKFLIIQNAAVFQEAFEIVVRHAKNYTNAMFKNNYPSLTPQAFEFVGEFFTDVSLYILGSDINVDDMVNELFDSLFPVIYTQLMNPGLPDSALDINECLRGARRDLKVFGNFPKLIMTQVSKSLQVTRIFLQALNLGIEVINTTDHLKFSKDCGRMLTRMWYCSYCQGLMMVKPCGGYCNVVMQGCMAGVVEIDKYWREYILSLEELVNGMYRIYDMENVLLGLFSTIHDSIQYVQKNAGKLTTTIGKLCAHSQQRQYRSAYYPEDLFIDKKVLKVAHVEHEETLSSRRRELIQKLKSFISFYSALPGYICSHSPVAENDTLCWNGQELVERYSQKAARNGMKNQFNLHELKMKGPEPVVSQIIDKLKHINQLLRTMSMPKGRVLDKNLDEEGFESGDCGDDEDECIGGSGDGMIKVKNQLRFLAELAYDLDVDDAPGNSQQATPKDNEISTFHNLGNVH

B1: anti-CD8 VHH (VHH)
VHH: EVQLLESGGGLVQPGGSLRLSCAASGFTFDDYAIGWFRQAPGKEREGVSCIRVSDGSTYYADSVKGRFTISRDNSKNTLYLQMNSLRAEDTAVYYCAAGSLYTCVQSIVWPARPYYDMDYWGQGTLV
notes: also called CD8 VHHb
Kd [1]: 55.3 nM
koff [1]: 0.0286 s⁻¹
kon [1]: 517000 M⁻¹ s⁻¹

B2: anti-GPC3 Fab (Fab, V domains shown)
VH: QVQLVQSGAEVKKPGASVKVSCKASGYTFTDYEMHWVRQAPGQGLEWMGALDPKTGDTAYSQKFKGRVTLTADKSTSTAYMELSSLTSEDTAVYYCTRFYSYTYWGQGTLVTVSS
VL: DVVMTQSPLSLPVTPGEPASISCRSSQSLVHSNRNTYLHWYLQKPGQSPQLLIYKVSNRFSGVPDRFSGSGSGTDFTLKISRVEAEDVGVYYCSQNTHVPPTFGQGTKLEIK
Kd [2]: 1.87 nM
koff [2]: 0.000422 s⁻¹
kon [2]: 226000 M⁻¹ s⁻¹

B3: TPP-46959 (other)
light: not shown
heavy 1: EVQLVQSGAEVKKPGASVKVSCKASGYKFSSYWIEWVKQAPGQGLEWIGEILPGSDTTNYAQKFQDRVTFTSDTSISTAYMELSRLRSDDTAVYYCARDRGNYRAWFGYWGQGTLVTVSSASTKGPSVFPLAPSSKSTSGGTAALGCLVKDYFPEPVTVSWNSGALTSGVHTFPAVLQSSGLYSLSSVVTVPSSSLGTQTYICNVNHKPSNTKVDKRVEPKSCDKTGGSEVQLVESGGGLVQPGGSLRLSCVASGDVHKINFLGWYRQAPGKEREKVAHISIGDQTDYADSAKGRFTISRDESKNMVYLQMNSLKPEDTAVYFCRAFSRIYPYDYWGQGTLVTVSSGGGGSTHTCPPCPAPPVAGPSVFLFPPKPKDTLMISRTPEVTCVVVDVKHEDPEVKFNWYVDGVEVHNAKTKPREEQYNSTYRVVSVLTVLHQDWLNGKEYKCKVSNKALPAPIEKTISKAKGQPREPQVCTLPPSREEMTKNQVSLSCAVKGFYPSDIAVEWESNGQPENNYKTTPPVLDSDGSFFLVSKLTVDKSRWQQGNVFSCSVMHEALHNRFTQKSLSLSPGK
heavy 2: EVQLVQSGAEVKKPGASVKVSCKASGYKFSSYWIEWVKQAPGQGLEWIGEILPGSDTTNYAQKFQDRVTFTSDTSISTAYMELSRLRSDDTAVYYCARDRGNYRAWFGYWGQGTLVTVSSASTKGPSVFPLAPSSKSTSGGTAALGCLVKDYFPEPVTVSWNSGALTSGVHTFPAVLQSSGLYSLSSVVTVPSSSLGTQTYICNVNHKPSNTKVDKRVEPKSCDKTGGSEVQLLESGGGLVQPGGSLRLSCAASGFTFTDYAIGWFRQAPGKEREGVSCIRVSDGSTYYADSVKGRFTISRDSSKNTLYLQMNSLRAEDTAVYYCAAGSLYTCVQSIVWPARPYYDMDYWGQGTLVTVSSGGGGSTHTCPPCPAPPVAGPSVFLFPPKPKDTLMISRTPEVTCVVVDVKHEDPEVKFNWYVDGVEVHNAKTKPREEQYNSTYRVVSVLTVLHQDWLNGKEYKCKVSNKALPAPIEKTISKAKGQPREPQVYTLPPCREEMTKNQVSLWCLVKGFYPSDIAVEWESNGQPENNYKTTPPVLDSDGSFFLYSKLTVDKSRWQQGNVFSCSVMHEALHNHYTQKSLSLSPGK
notes: T-cell engager in the CD8/TCR format: 2x LRRC15 Fab, 1x TCR VHH, 1x CD8 VHH; Residue 55 of L-CDR2 is E
binding result [3]: binds
Kd [4]: 1.34 nM
Kd [5]: 3 nM

B4: TPP-46957 (other)
light: not shown
heavy 1: B3 heavy 1 with K63Q
heavy 2: B3 heavy 2 with K63Q
notes: T-cell engager in the CD8/TCR format: 2x LRRC15 Fab, 1x TCR VHH, 1x CD8 VHH
binding result [3]: binds
Kd [4]: 2.27 nM
Kd [5]: 4.55 nM

B5: TPP-46958 (other)
light: not shown
heavy 1: B3 heavy 1 with T57A
heavy 2: B3 heavy 2 with T57A
notes: as for B4
binding result [3]: binds
Kd [4]: 3.1 nM
Kd [5]: 6.4 nM

B6: TPP-46956 (other)
light: not shown
heavy 1: B3 heavy 1 with K63N
heavy 2: B3 heavy 2 with K63N
notes: as for B4
binding result [3]: binds
Kd [4]: 2.24 nM
Kd [5]: 4.8 nM

B7: TPP-46960 (other)
light: not shown
heavy 1: B3 heavy 1
heavy 2: B3 heavy 2
notes: T-cell engager in the CD8/TCR format: 2x LRRC15 Fab, 1x TCR VHH, 1x CD8 VHH; Residue 55 of L-CDR2 is N
binding result [3]: binds
Kd [4]: 0.98 nM
Kd [5]: 2.24 nM
